Assay results as given in publication PMC13276077.

Tests used:
[1] = molecular target: MeCP2 full-length, e2 isoform (Homo sapiens, UniProt P51608 1-486); assay: EMSA; 20 mM HEPES pH 7.5, 75 mM NaCl, 125 mM KCl, 50 uM EDTA, 2.5 mM beta-mercaptoethanol, 5% glycerol, BSA, 1.58 uM 47 bp competitor DNA (nucleosome assays; absent with free DNA), room temperature 30 min; settings: protein: recombinant, tags: none
[2] = molecular target: MeCP2 full-length, e2 isoform;histone octamer (Homo sapiens;, UniProt P51608;P0C0S8;P62807;P68431;P62805 1-486;2-130;2-126;2-136;2-103, |H2B T115C;H3.1 C96S;C110A); assay: EMSA; 20 mM HEPES pH 7.5, 75 mM NaCl, 125 mM KCl, 50 uM EDTA, 2.5 mM beta-mercaptoethanol, 5% glycerol, BSA, 1.58 uM 47 bp competitor DNA (nucleosome assays); absent w

B1: 15-N601-15 free DNA -1 meCpG (dsDNA)
DNA 1: ATGGAACACATTGCACAGGATGTATATATCTGACACGTGCCTGGAGACTAGGGAGTAATCCCCTTGGCGGTTAAAACGCGGGGGACAGCGCGTACGTGCGTTTAAGCGGTGCTAGAGCTGTCTACGACCAATTGAGCGGCCTCGGCACCGGGATTCTCCAGGGCGGCCGCGTATT
DNA 2: AATACGCGGCCGCCCTGGAGAATCCCGGTGCCGAGGCCGCTCAATTGGTCGTAGACAGCTCTAGCACCGCTTAAACGCACGTACGCGCTGTCCCCCGCGTTTTAACCGCCAAGGGGATTACTCCCTAGTCTCCAGGCACGTGTCAGATATATACATCCTGTGCAATGTGTTCCAT
modifications: meCpG at -1
Kd ([1]; label: 5' 6-FAM, blunt): 45.3 ± 2 nM

B2: 15-N601-15 free DNA unmethylated (dsDNA)
DNA 1: ATGGAACACATTGCACAGGATGTATATATCTGACACGTGCCTGGAGACTAGGGAGTAATCCCCTTGGCGGTTAAAACGCGGGGGACAGCGCGTACGTGCGTTTAAGCGGTGCTAGAGCTGTCTACGACCAATTGAGCGGCCTCGGCACCGGGATTCTCCAGGGCGGCCGCGTATT
DNA 2: AATACGCGGCCGCCCTGGAGAATCCCGGTGCCGAGGCCGCTCAATTGGTCGTAGACAGCTCTAGCACCGCTTAAACGCACGTACGCGCTGTCCCCCGCGTTTTAACCGCCAAGGGGATTACTCCCTAGTCTCCAGGCACGTGTCAGATATATACATCCTGTGCAATGTGTTCCAT
Kd ([1]; label: 5' 6-FAM, blunt): 75.9 ± 4.2 nM

B3: 15-N601-15 free DNA -61 meCpG (dsDNA)
DNA 1: ATGGAACACATTGCACAGGATGTATATATCTGACACGTGCCTGGAGACTAGGGAGTAATCCCCTTGGCGGTTAAAACGCGGGGGACAGCGCGTACGTGCGTTTAAGCGGTGCTAGAGCTGTCTACGACCAATTGAGCGGCCTCGGCACCGGGATTCTCCAGGGCGGCCGCGTATT
DNA 2: AATACGCGGCCGCCCTGGAGAATCCCGGTGCCGAGGCCGCTCAATTGGTCGTAGACAGCTCTAGCACCGCTTAAACGCACGTACGCGCTGTCCCCCGCGTTTTAACCGCCAAGGGGATTACTCCCTAGTCTCCAGGCACGTGTCAGATATATACATCCTGTGCAATGTGTTCCAT
modifications: meCpG at -61
Kd ([1]; label: 5' 6-FAM, blunt): 50.5 ± 1.9 nM

B4: 16-N603-30 +91 CG nucleosome 91 meCpG (nucleosome)
DNA 1: GAGCCACAAAACCGGCGACGCTCACGGGTGCCCAGTTCGCGCGCCCACCTACCGTGTGAAGTCGTCACTCGGGCTTCTAAGTACGCTTAGCGCACGGTAGAGCGCAATCCAAGGCTAACCACCGTGCATCGATGTTGAAAGAGGCCCTCCGTCCTTATTACTTCAAGTCCCTGGGGTACCCGTTTCACTGCCA
DNA 2: TGGCAGTGAAACGGGTACCCCAGGGACTTGAAGTAATAAGGACGGAGGGCCTCTTTCAACATCGATGCACGGTGGTTAGCCTTGGATTGCGCTCTACCGTGCGCTAAGCGTACTTAGAAGCCCGAGTGACGACTTCACACGGTAGGTGGGCGCGCGAACTGGGCACCCGTGAGCGTCGCCGGTTTTGTGGCTC
modifications: meCpG at 91
Kd [2]: 71.3 nM

B5: 16-N603-30 free DNA unmethylated (dsDNA)
DNA 1: GAGCCACAAAATCACCGACGCTCACGGGTGCCCAGTTCGCGCGCCCACCTACCGTGTGAAGTCGTCACTCGGGCTTCTAAGTACGCTTAGCGCACGGTAGAGCGCAATCCAAGGCTAACCACCGTGCATCGATGTTGAAAGAGGCCCTCCGTCCTTATTACTTCAAGTCCCTGGGGTACCCGTTTCACTGCCA
DNA 2: TGGCAGTGAAACGGGTACCCCAGGGACTTGAAGTAATAAGGACGGAGGGCCTCTTTCAACATCGATGCACGGTGGTTAGCCTTGGATTGCGCTCTACCGTGCGCTAAGCGTACTTAGAAGCCCGAGTGACGACTTCACACGGTAGGTGGGCGCGCGAACTGGGCACCCGTGAGCGTCGGTGATTTTGTGGCTC
Kd ([1]; label: 5' 6-FAM): 46.2 ± 2.8 nM

B6: 16-N603-30 free DNA 81 meCpA (dsDNA)
DNA 1: GAGCCACAAAATCACCGACGCTCACGGGTGCCCAGTTCGCGCGCCCACCTACCGTGTGAAGTCGTCACTCGGGCTTCTAAGTACGCTTAGCGCACGGTAGAGCGCAATCCAAGGCTAACCACCGTGCATCGATGTTGAAAGAGGCCCTCCGTCCTTATTACTTCAAGTCCCTGGGGTACCCGTTTCACTGCCA
DNA 2: TGGCAGTGAAACGGGTACCCCAGGGACTTGAAGTAATAAGGACGGAGGGCCTCTTTCAACATCGATGCACGGTGGTTAGCCTTGGATTGCGCTCTACCGTGCGCTAAGCGTACTTAGAAGCCCGAGTGACGACTTCACACGGTAGGTGGGCGCGCGAACTGGGCACCCGTGAGCGTCGGTGATTTTGTGGCTC
modifications: asymmetric meCpA at 81
Kd ([1]; label: 5' 6-FAM): 27.1 ± 1.8 nM

B7: 16-N603-30 +81 CG nucleosome 81 meCpG (nucleosome)
DNA 1: GAGCCACAAAATCACCGACGCCCGGGGGTGCCCAGTTCGCGCGCCCACCTACCGTGTGAAGTCGTCACTCGGGCTTCTAAGTACGCTTAGCGCACGGTAGAGCGCAATCCAAGGCTAACCACCGTGCATCGATGTTGAAAGAGGCCCTCCGTCCTTATTACTTCAAGTCCCTGGGGTACCCGTTTCACTGCCA
DNA 2: TGGCAGTGAAACGGGTACCCCAGGGACTTGAAGTAATAAGGACGGAGGGCCTCTTTCAACATCGATGCACGGTGGTTAGCCTTGGATTGCGCTCTACCGTGCGCTAAGCGTACTTAGAAGCCCGAGTGACGACTTCACACGGTAGGTGGGCGCGCGAACTGGGCACCCCCGGGCGTCGGTGATTTTGTGGCTC
modifications: meCpG at 81
Kd [2]: 65.5 nM

B8: 16-N603-30 +81 CG free DNA 81 meCpG (dsDNA)
DNA 1: GAGCCACAAAATCACCGACGCCCGGGGGTGCCCAGTTCGCGCGCCCACCTACCGTGTGAAGTCGTCACTCGGGCTTCTAAGTACGCTTAGCGCACGGTAGAGCGCAATCCAAGGCTAACCACCGTGCATCGATGTTGAAAGAGGCCCTCCGTCCTTATTACTTCAAGTCCCTGGGGTACCCGTTTCACTGCCA
DNA 2: TGGCAGTGAAACGGGTACCCCAGGGACTTGAAGTAATAAGGACGGAGGGCCTCTTTCAACATCGATGCACGGTGGTTAGCCTTGGATTGCGCTCTACCGTGCGCTAAGCGTACTTAGAAGCCCGAGTGACGACTTCACACGGTAGGTGGGCGCGCGAACTGGGCACCCCCGGGCGTCGGTGATTTTGTGGCTC
modifications: meCpG at 81
Kd ([1]; blunt): 23.8 ± 1.2 nM

B9: 16-N603-30 +91 CG free DNA 91 meCpG (dsDNA)
DNA 1: GAGCCACAAAACCGGCGACGCTCACGGGTGCCCAGTTCGCGCGCCCACCTACCGTGTGAAGTCGTCACTCGGGCTTCTAAGTACGCTTAGCGCACGGTAGAGCGCAATCCAAGGCTAACCACCGTGCATCGATGTTGAAAGAGGCCCTCCGTCCTTATTACTTCAAGTCCCTGGGGTACCCGTTTCACTGCCA
DNA 2: TGGCAGTGAAACGGGTACCCCAGGGACTTGAAGTAATAAGGACGGAGGGCCTCTTTCAACATCGATGCACGGTGGTTAGCCTTGGATTGCGCTCTACCGTGCGCTAAGCGTACTTAGAAGCCCGAGTGACGACTTCACACGGTAGGTGGGCGCGCGAACTGGGCACCCGTGAGCGTCGCCGGTTTTGTGGCTC
modifications: meCpG at 91
Kd ([1]; blunt): 24.6 ± 1.7 nM

B10: 16-N603-30 free DNA 91 meCpA (dsDNA)
DNA 1: GAGCCACAAAATCACCGACGCTCACGGGTGCCCAGTTCGCGCGCCCACCTACCGTGTGAAGTCGTCACTCGGGCTTCTAAGTACGCTTAGCGCACGGTAGAGCGCAATCCAAGGCTAACCACCGTGCATCGATGTTGAAAGAGGCCCTCCGTCCTTATTACTTCAAGTCCCTGGGGTACCCGTTTCACTGCCA
DNA 2: TGGCAGTGAAACGGGTACCCCAGGGACTTGAAGTAATAAGGACGGAGGGCCTCTTTCAACATCGATGCACGGTGGTTAGCCTTGGATTGCGCTCTACCGTGCGCTAAGCGTACTTAGAAGCCCGAGTGACGACTTCACACGGTAGGTGGGCGCGCGAACTGGGCACCCGTGAGCGTCGGTGATTTTGTGGCTC
modifications: asymmetric meCpA at 91
Kd ([1]; blunt): 27.8 ± 1.9 nM

B11: N601-15 nucleosome 81 meCpA (nucleosome)
DNA 1: ATGGAACACATTGCACAGGATGTATATATCTGACACGTGCCTGGAGACTAGGGAGTAATCCCCTTGGCGGTTAAAACGCGGGGGACAGCGCGTACGTGCGTTTAAGCGGTGCTAGAGCTGTCTACGACCAATTGAGCGGCCTCGGCACCGGGATTCTCCA
DNA 2: TGGAGAATCCCGGTGCCGAGGCCGCTCAATTGGTCGTAGACAGCTCTAGCACCGCTTAAACGCACGTACGCGCTGTCCCCCGCGTTTTAACCGCCAAGGGGATTACTCCCTAGTCTCCAGGCACGTGTCAGATATATACATCCTGTGCAATGTGTTCCAT
modifications: asymmetric meCpA at 81
Kd [2]: 357 nM

B12: N601-15 nucleosome (single 15 bp linker) (nucleosome)
DNA 1: ATGGAACACATTGCACAGGATGTATATATCTGACACGTGCCTGGAGACTAGGGAGTAATCCCCTTGGCGGTTAAAACGCGGGGGACAGCGCGTACGTGCGTTTAAGCGGTGCTAGAGCTGTCTACGACCAATTGAGCGGCCTCGGCACCGGGATTCTCCA
DNA 2: TGGAGAATCCCGGTGCCGAGGCCGCTCAATTGGTCGTAGACAGCTCTAGCACCGCTTAAACGCACGTACGCGCTGTCCCCCGCGTTTTAACCGCCAAGGGGATTACTCCCTAGTCTCCAGGCACGTGTCAGATATATACATCCTGTGCAATGTGTTCCAT
Kd [2]: 419 nM

B13: N601 nucleosome core particle -61 meCpG (nucleosome)
DNA 1: CAGGATGTATATATCTGACACGTGCCTGGAGACTAGGGAGTAATCCCCTTGGCGGTTAAAACGCGGGGGACAGCGCGTACGTGCGTTTAAGCGGTGCTAGAGCTGTCTACGACCAATTGAGCGGCCTCGGCACCGGGATTCTCCA
DNA 2: TGGAGAATCCCGGTGCCGAGGCCGCTCAATTGGTCGTAGACAGCTCTAGCACCGCTTAAACGCACGTACGCGCTGTCCCCCGCGTTTTAACCGCCAAGGGGATTACTCCCTAGTCTCCAGGCACGTGTCAGATATATACATCCTG
modifications: meCpG at -61
binding result [2]: no binding
